# Reference: the RNAGym collection of RNA variant scans (doi:10.1073/pnas.2313332121)
# B1: TPR t1 (parent)
# chain: GACCAAUCUGCCCUCAGAGCUCGAGAACAUCUUCGGAUGCAGAGGAGGCAGGCUUCGGUGGCGCGAUAGCGCCAACGUCCUCAACCUCCAAUGCAUCCCACCACAUGAUGAUGCCUGAAGAGCCUUGGUUUUUUG
# Variants of: B1
# Experiment: polymerase ribozyme fitness, log enrichment relative to wild type (log ratio); higher = more active; in vitro selection for triplet polymerase activity
# Procedure, shortened: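 Fitness is a logarithmic measure of how a genotype enriched relative to the wild type, with replicate averages weighted by inverse variance. The logarithm uses base 2, and enrichment came from Illumina sequencing of input and output libraries. Those libraries were PCR-built, transcribed mutants of each subunit of a heterodimeric triplet polymerase ribozyme, passed through one triplicate in vitro selection round that included frozen incubation at −7 °C, gel excision of extended constructs and streptavidin-bead capture. Genotypes were kept only if they had ≥10 input reads and ≥1 read per output.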
row,Variant,polymerase ribozyme fitness (log ratio)
1,C8A G117U A119U C123U,-0.478
2,U33A C72G A74C G127C,-7.04
3,G10A G44A G47A G61C,-3.22
4,C62G U78C,-1.87
5,G42C G120U,-1.69
6,C72U C94A U125A,-1.59
7,C101G G122C C124A U126A,-3.82
8,G39U G47C G57U A84C,-3.89
9,G42U C56G C123U,-0.406
10,C3A C85U A90U C114U G127C,-2.77
11,U14G U21C G42U,-3.13
12,A5C C72U C82G U87A C123G,-3.15
13,G10C C49G C64U A83G U125A,-3.57
14,A66G C72A C79A A84U,-4.61
15,G36A U125A,-1.27
16,G44C U55C,-1.02
17,C13A A18G C49A C94U G117U,-6.43
18,C40A C72G A108G,-4.46
19,A2G C12U C56A C97U C124U,0.631
20,G39A G93A,-2.02
21,G44U G48A C86U U92A,-4.3

row,Variant,polymerase ribozyme fitness (log ratio)
1,C82A C94A C104A,-3.13
2,A91C C123A U133G,-1.07
3,G10U C76A,-1.51
4,G61U A84G U96G,-0.74
5,C49A C72A,0.275
6,U78A C88G C98U G135A,-2.63
7,A27U G51A A74C A83C,-7.03
8,U9C C56A A95C U116A,-2.12
9,C62U G110U,-1.14
10,G17A U78C,-3.04
11,C53G U116C,-1.68
12,G63U C102A,-3.78
13,G47A G51U U55A C98A G113C,-7.22
14,G36U G47C G117U,-6.43
15,C11U G36U G117A C124U,-5.7
16,A6C C13A A37U C82U,-2.7
17,A50G U78G,0.0351
18,G39A U54A A83U U92G,-4.73
19,G117A U133A,-1.2
20,A26G C56U,-1.28
21,A66G G77A C94U C115A U132A,-0.858

row,Variant,polymerase ribozyme fitness (log ratio)
1,A27C U54A C64A G113A,-5.44
2,G19U A41C G48U G120U,-4.33
3,A24G C85A U96A,-3.35
4,U7A C8G A43C C53A G69U,-0.446
5,C11U G47A G71C C86U,-0.929
6,C12A C85G U116C,-3.68
7,A2U G71U A74C,-4.54
8,G19A C124A U129C,-2.22
9,G48U C86A C115U G120C,-2.47
10,G71U G117A,-1.51
11,C15G A50U,-3.73
12,C15A G47U C64U C123U,-2.43
13,A5C G51A C62U U78G,-3.87
14,G1U,0.29
15,A6U A16C C40U C70U C85G,-5.17
16,A18C G44A G61U C85G A121U,-2.31
17,U9A C79A G93U C101A,-2.59
18,A18U G39U C73U C85G,-4.26
19,A5C A18G,-4.19
20,A6G A37U C72A C73U G117U C124A,-0.937
21,C12G C64U,0.291

row,Variant,polymerase ribozyme fitness (log ratio)
1,U32C G60C A75C C79G,-1.89
2,C72A U96A,-1.74
3,G57A C70A,-3.43
4,C12A A29U C56U,-3.33
5,G110A G113A,-3.95
6,A43G C49U U59G C114U,-2.13
7,A41C G61U C70G C101A A111C,-5.73
8,G117A C123A,-0.382
9,G63A C72G,-3.11
10,G36C U55A U131A,-0.527
11,A66U A83U,-1.4
12,U78C C123A,0.196
13,A83C C101A,-1.18
14,G44U C98U,-2.19
15,A29C A41C C56G U59A G69U C82U A121C G135C,-6.04
16,A18G G23A C53U U59C C79A G117C U133C,-5.37
17,A6G C13U C22U G44C,-5.6
18,G36A A43C,-3.56
19,A29C C102A U109G,-2.1
20,C4U G48U G93A,-2.39
